Target: T1, Pfu-E10 DNA polymerase (evolved Pfu polB variant) (Pyrococcus furiosus, UniProt P61875 1-775, R407I)
T1 sequence: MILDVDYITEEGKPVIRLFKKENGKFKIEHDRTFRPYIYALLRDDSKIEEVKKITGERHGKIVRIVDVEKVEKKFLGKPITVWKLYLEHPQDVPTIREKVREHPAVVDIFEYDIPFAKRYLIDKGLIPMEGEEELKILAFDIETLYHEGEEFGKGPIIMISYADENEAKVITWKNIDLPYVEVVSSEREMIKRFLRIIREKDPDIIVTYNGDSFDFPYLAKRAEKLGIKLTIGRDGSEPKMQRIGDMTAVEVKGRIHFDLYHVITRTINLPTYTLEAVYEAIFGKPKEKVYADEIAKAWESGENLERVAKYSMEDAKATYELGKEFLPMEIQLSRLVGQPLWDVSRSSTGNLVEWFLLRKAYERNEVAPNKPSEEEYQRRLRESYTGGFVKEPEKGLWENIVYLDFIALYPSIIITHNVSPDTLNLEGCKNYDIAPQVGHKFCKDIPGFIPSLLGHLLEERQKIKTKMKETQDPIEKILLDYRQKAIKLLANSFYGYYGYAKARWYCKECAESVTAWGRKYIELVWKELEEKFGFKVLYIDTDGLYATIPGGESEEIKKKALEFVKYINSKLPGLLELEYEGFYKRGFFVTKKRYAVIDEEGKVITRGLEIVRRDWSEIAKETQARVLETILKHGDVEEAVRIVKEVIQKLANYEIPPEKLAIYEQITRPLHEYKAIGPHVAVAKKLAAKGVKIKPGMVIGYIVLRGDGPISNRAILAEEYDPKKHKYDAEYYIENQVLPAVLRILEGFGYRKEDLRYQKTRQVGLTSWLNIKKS
Assay: X-ray crystallography (2.9 A); binary complex; 10 mM dCTP in crystallisation medium but no dNTP or metal ion seen at active site; Complex: 20 mM Tris, 50 mM NaCl, 5 mM MgCl2, 5% glycerol, 1 mM dCTP, 1:5 protein:DNA, 4 C overnight; crystals: 0.1 M Na cacodylate pH 6.5, 0.1 M Na citrate, 30% isopropanol, 10 mM dCTP
Conditions: protein: recombinant; 5' overhang 3 nt (template)

B1: primer:template duplex (crystal) (dsDNA)
DNA 1: ACGGGTAAGCA
DNA 2: TGCTTACC
modifications: 3'-terminal C of primer is 2',3'-dideoxycytidine (DOC)
binding result: binds

Source: article PMC3733885, “Structures of an Apo and a Binary Complex of an Evolved Archeal B Family DNA Polymerase Capable of Synthesising Highly Cy-Dye Labelled DNA”
